These results are taken from US20140341888A1.

In this experiment the target is EGFR-AP fusion protein (UniProt P00533). The experiment is described as follows: SPR (BIAcore), EGFR-AP immobilized, antibody 1.5 nM to 100 nM.

IMC-11F8 Fab, sequence (VH): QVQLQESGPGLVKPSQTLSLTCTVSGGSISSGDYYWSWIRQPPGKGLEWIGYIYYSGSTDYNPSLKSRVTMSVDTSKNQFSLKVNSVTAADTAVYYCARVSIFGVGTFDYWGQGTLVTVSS
IMC-11F8 Fab, sequence (VL): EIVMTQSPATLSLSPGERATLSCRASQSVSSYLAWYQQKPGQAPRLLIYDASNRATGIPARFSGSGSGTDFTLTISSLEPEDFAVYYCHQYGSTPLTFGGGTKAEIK

The substance IMC-11F8 Fab returned a Kd of 1.78 nM, a koff of 0.00367 s⁻¹ and a kon of 2.29e+06 M⁻¹ s⁻¹.
